The record followed here is article PMC8675452.

The assay addresses biotinylated MPER peptide (MPERbiot) (HIV (strain not stated)). Put plainly: BLI.

In the case of “trispecific anti-HIV antibody (SAR441236)”, the koff stood at 0.00126 s⁻¹.
